The data set “cryo-EM structure” deals with the molecule itself. As to the kind of experiment: cryo-EM structure.
The target of data set [1] is SV40 large tumour antigen (LTag) helicase hexamer (Simian virus 40, UniProt P03070 1-708). As to the kind of experiment: cryo-EM.

B1: simian virus 40 large tumour antigen (LTag) helicase (enzyme)
chain: MDKVLNREESLQLMDLLGLERSAWGNIPLMRKAYLKKCKEFHPDKGGDEEKMKKMNTLYKKMEDGVKYAHQPDFGGFWDATEIPTYGTDEWEQWWNAFNEENLFCSEEMPSSDDEATADSQHSTPPKKKRKVEDPKDFPSELLSFLSHAVFSNRTLACFAIYTTKEKAALLYKKIMEKYSVTFISRHNSYNHNILFFLTPHRHRVSAINNYAQKLCTFSFLICKGVNKEYLMYSALTRDPFSVIEESLPGGLKEHDFNPEEAEETKQVSWKLVTEYAMETKCDDVLLLLGMYLEFQYSFEMCLKCIKKEQPSHYKYHEKHYANAAIFADSKNQKTICQQAVDTVLAKKRVDSLQLTREQMLTNRFNDLLDRMDIMFGSTGSADIEEWMAGVAWLHCLLPKMDSVVYDFLKCMVYNIPKKRYWLFKGPIDSGKTTLAAALLELCGGKALNVNLPLDRLNFELGVAIDQFLVVFEDVKGTGGESRDLPSGQGINNLDNLRDYLDGSVKVNLEKKHLNKRTQIFPPGIVTMNEYSVPKTLQARFVKQIDFRPKDYLKHCLERSEFLLEKRIIQSGIALLLMLIWYRPVAEFAQSIQSRIVEWKERLDKEFSLSVYQKMKFNVAMGIGVLDWLRNSDDDDEDSQENADKNEDGGEKNMEDSGHETGIDSQSQGSFQAPQSSQSVHDHNQPYHICRGFTCFKKPPTPPPEPET
For B1, in the data set “cryo-EM structure”, the “stoichiometry N” value was 6.

B2: gap DNA substrate without free 3' ssDNA tail (mixed)
DNA 1: AGCTATGACCATGATTACGAATTGC
DNA 2: TTTTTCGGAGTCGTTTCGACTCCGATTTTTTTTTTTTTTTTTTTTTTTTTTTTTTTTTTTTTTTTTTTTTGCAATTCGTAATCATGGTCATAGCT
modifications: 3' terminal dideoxy-C ([23ddC]) on strand 1
On to B2, for which the binding result in data set [1] was “no binding”.

What is called stoichiometry N is a count of units in the complex or per binding partner.
